From patent publication US20260137822A1 (ABDERA THERAPEUTICS, published 2026)

T1: human DLL3 (recombinant antigen) (human, UniProt Q9NYJ7 27-492, limits assumed)
T1 construct: also called hDLL3
T1 sequence (looked up): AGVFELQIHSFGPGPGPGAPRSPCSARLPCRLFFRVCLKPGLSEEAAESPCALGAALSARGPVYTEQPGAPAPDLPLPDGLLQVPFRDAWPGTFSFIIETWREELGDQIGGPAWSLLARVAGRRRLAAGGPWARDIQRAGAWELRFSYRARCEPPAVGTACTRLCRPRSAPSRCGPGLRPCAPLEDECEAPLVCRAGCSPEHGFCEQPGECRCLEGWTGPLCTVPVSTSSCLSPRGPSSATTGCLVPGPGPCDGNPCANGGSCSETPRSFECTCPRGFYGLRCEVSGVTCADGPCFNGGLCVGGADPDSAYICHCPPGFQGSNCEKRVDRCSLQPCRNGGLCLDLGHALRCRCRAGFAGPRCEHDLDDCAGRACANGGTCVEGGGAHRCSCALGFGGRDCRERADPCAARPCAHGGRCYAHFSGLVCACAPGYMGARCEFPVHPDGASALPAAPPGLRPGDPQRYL

T2: mouse DLL3 (recombinant antigen) (mouse, UniProt O88516 25-477, limits assumed)
T2 construct: also called mDLL3
T2 sequence (looked up): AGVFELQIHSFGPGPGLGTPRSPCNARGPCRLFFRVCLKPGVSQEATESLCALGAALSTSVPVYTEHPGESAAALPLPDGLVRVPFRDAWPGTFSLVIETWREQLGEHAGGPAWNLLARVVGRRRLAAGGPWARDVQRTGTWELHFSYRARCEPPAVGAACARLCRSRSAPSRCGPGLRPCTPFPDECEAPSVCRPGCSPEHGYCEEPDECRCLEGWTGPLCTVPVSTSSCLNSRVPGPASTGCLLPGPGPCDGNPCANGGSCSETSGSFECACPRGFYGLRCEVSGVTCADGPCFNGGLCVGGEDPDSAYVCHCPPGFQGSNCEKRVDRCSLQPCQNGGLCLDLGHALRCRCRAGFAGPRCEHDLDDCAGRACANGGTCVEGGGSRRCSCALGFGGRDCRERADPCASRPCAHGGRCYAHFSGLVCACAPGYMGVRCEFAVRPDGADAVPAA

T3: human DLL3 on cells (HEK293T cells expressing human DLL3; SHP-77 cells) (human, UniProt Q9NYJ7 27-618)
T3 sequence (looked up): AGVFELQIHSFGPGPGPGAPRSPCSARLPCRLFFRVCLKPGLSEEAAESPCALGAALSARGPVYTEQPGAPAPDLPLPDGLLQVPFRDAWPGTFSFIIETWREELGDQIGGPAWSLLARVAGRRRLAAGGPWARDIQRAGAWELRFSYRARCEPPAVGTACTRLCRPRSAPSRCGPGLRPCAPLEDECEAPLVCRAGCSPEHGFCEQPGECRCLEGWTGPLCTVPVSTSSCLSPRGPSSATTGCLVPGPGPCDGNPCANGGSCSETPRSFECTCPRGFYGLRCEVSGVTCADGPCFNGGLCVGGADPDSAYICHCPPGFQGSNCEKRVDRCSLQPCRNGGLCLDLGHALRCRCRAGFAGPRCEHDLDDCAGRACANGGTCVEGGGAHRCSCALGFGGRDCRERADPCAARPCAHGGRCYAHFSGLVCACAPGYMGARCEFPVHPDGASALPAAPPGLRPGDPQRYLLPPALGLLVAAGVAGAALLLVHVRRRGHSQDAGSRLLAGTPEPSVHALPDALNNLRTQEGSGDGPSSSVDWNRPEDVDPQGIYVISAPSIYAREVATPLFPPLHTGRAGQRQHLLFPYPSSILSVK

B1: Anti-FOLR1x2; Anti-DLL3x2; GGSx3 (bispecific tetravalent VHH-VHH-Fc) (bispecific antibody, not shown: a dimerising Fc or GST)
chain: QVQLVESGGGLVQPGGSLRLSCAASGFTVSNSVMAWYRQTPGNEREFVAIINSIGITNYADSVKGRFTISRDNSKNTLYLQMNSLRAEDTAVYVCNRNFDRIYWGQGTLVTVSSGGSGGSGGSEVQLVESGGGEVQPGGSLRLSCAASGSIFSINAMGWYRQAPGKQRELVAGFTGDTNTIYAESVKGRFTISRDNAKNTVYLQMSSLRAEDTAVYYCAADVQLFSRDYEFYWGQGTLVTVKP
notes: homodimer; 104,263 Da; also called (GGS)3
B2: Clone 24 VHH-Fc, H435Q-Fc format (Fc fusion)
chain: QVQYVESGGGLVQPGGSLRLSCAASGFTFSSYRINWYRQPPGKGRELVGSITDTGSTNYADSVKGRFTISRDNAKNTVYLQMSSLKPEDTAVYYCRAPTIAAYWGQGTQVTVSS
notes: also called 24 (H435Q-Fc); not shown: hinge and human IgG1 Fc with H435Q (EU)
B3: Clone 100 VHH-Fc, H435Q-Fc format (Fc fusion)
chain: QVQLVESGGGSVQPGGSLRLSCAASGIVFNSDVMGWYRQVPGKPRELVATITGGGSTNYATSVKGRFTISRDNAKNTVYLQMNSLRPEDTAVYYCNGRRGDSMLAFWAQGTQVTVSS
notes: also called 100 (H435Q-Fc); not shown: hinge and human IgG1 Fc with H435Q (EU)
B4: FOLR1 VHH (VHH-Fc control) (Fc fusion, not shown: a dimerising Fc or GST)
chain: QVQLVESGGGLVQPGGSLRLSCAASGFTVSNSVMAWYRQTPGNEREFVAIINSIGITNYADSVKGRFTISRDNSKNTLYLQMNSLRAEDTAVYVCNRNFDRIYWGQGTLVTVSS
B5: Clone 126 VHH-Fc, H435Q-Fc format (Fc fusion)
chain: QVQLVESGGGMVQPGGSLRLSCAASGITFSMYSMSWYRQPPGKQRELVAATTTFGSTNYADSVKGRFTISRDNAKNTVYLQMNSLKPEDTAVYLCNARFTSEEYWGQGTQVTVSS
notes: not shown: hinge and human IgG1 Fc with H435Q (EU)
B6: Anti-FOLR1x2; Anti-DLL3x2; GGSx4 (bispecific tetravalent VHH-VHH-Fc) (bispecific antibody, not shown: a dimerising Fc or GST)
chain: QVQLVESGGGLVQPGGSLRLSCAASGFTVSNSVMAWYRQTPGNEREFVAIINSIGITNYADSVKGRFTISRDNSKNTLYLQMNSLRAEDTAVYVCNRNFDRIYWGQGTLVTVSSGGSGGSGGSGGSEVQLVESGGGEVQPGGSLRLSCAASGSIFSINAMGWYRQAPGKQRELVAGFTGDTNTIYAESVKGRFTISRDNAKNTVYLQMSSLRAEDTAVYYCAADVQLFSRDYEFYWGQGTLVTVKP
notes: homodimer; 104,665 Da; also called (GGS)4
B7: Anti-FOLR1x2; Anti-DLL3x2; GGGGSx3 (bispecific tetravalent VHH-VHH-Fc) (bispecific antibody, not shown: a dimerising Fc or GST)
chain: QVQLVESGGGLVQPGGSLRLSCAASGFTVSNSVMAWYRQTPGNEREFVAIINSIGITNYADSVKGRFTISRDNSKNTLYLQMNSLRAEDTAVYVCNRNFDRIYWGQGTLVTVSSGGGGSGGGGSGGGGSEVQLVESGGGEVQPGGSLRLSCAASGSIFSINAMGWYRQAPGKQRELVAGFTGDTNTIYAESVKGRFTISRDNAKNTVYLQMSSLRAEDTAVYYCAADVQLFSRDYEFYWGQGTLVTVKP
notes: homodimer; 104,948 Da; also called (GGGGS)3
B8: Clone 186 VHH-Fc, H435Q-Fc format (Fc fusion)
chain: QVQVVESGGGLVQPGGSLTLSCAASGFDFSTYTVNWYRQAPGKEREKVARISSTGTTTNYANSAKGRFTLSRDNAKNRVYLQMNNLKPEDTAVYFCNFERFDSNYWGQGTQVTVSS
notes: also called 186 (H435Q-Fc); not shown: hinge and human IgG1 Fc with H435Q (EU)
B9: Clone 107 VHH-Fc, H435Q-Fc format (Fc fusion)
chain: QVQLVESGGGLVQAGDSLRLSCVASDRTFSSYAVGWFRQAPGKEREFVAAISWNGGRTLYTDSVTGRFTISRDNAKSTVYLQMNGLKPEDTAVYYCAARPAAPTRRLEYDYWGQGTQVTVSS
notes: as for B5

Key:
[1] = target: T4, human FOLR1 (recombinant antigen) (human, UniProt P15328 25-234, limits assumed); experiment: ELISA on hFOLR1
T4 construct: also called hFOLR1

[2] = target: T5, mouse FOLR1 (recombinant antigen) (mouse, UniProt P35846 25-232, limits assumed); experiment: ELISA on mFOLR1
T5 construct: also called mFOLR1

[3] = target: T6, FOLR1 on OVCAR3 cells (UniProt P15328 25-234); experiment: cell binding to FOLR1-positive OVCAR3 cells
T6 construct: whole, on cells; OVCAR3 is a human ovarian cancer line; also called FOLR1-positive OVCAR3 cells

[4] = target: T1, human DLL3 (recombinant antigen); experiment: BLI (Octet), construct captured on AHC biosensor, hDLL3 as analyte
Experimental: (§1) Antibody affinity was assessed using Octet Red96e (ForteBio). […] Each cycle was performed with orbital shake speed of 1,000 rpm. […] A set of AHC biosensors was dipped in kinetics buffer for baseline step of 60s. Anti-Target VHH-Fc (5 μg/mL, in kinetics buffer) was loaded onto the biosensors for 240 s followed by a second baseline step of 30 s. The IgG captured sensors were dipped into buffer for single reference subtraction to compensate natural dissociation of capture IgG. Each biosensor was then dipped into corresponding concentration of target protein (human, murine or cynomolgus monomeric protein) for 600 s, followed by 1800 s of dissociation time in kinetics buffer, or conditions as optimized. A new set of AHC biosensors was used for every VHH-Fc. The data was analysed by global fit 1:1 model for the association and dissociation step, (Octet software version v11.0).
(§2) Tetramers and VHH-Fcs were assessed for affinity to target antigens. AHC Octet biosensors were used to capture tetramer/VHH-Fc and then dipped into antigen.

[5] = target: T4, human FOLR1 (recombinant antigen); experiment: BLI (Octet), construct captured on AHC biosensor, hFOLR1 as analyte
Experimental: as §1, §2

[6] = target: T5, mouse FOLR1 (recombinant antigen); experiment: BLI (Octet), construct captured on AHC biosensor, mFOLR1 as analyte
Experimental: as §1, §2

[7] = target: T2, mouse DLL3 (recombinant antigen); experiment: BLI (Octet), construct captured on AHC biosensor, mDLL3 as analyte; row label taken as a misprint for the bispecific
Experimental: as §1, §2

[8] = target: T3, human DLL3 on cells (HEK293T cells …); experiment: cell-based or functional assay
[9] = target: T3, human DLL3 on cells (HEK293T cells …); experiment: flow cytometry on SHP-77 cells (endogenous DLL3), H435Q-Fc format
[10] = target: T1, human DLL3 (recombinant antigen); experiment: affinity to hDLL3, H435Q-Fc format; method not given
[11] = target: T1, human DLL3 (recombinant antigen); experiment: BLI (Octet), VHH-Fc captured on AHC biosensor, hDLL3 as analyte
Experimental: as §1
(§3) AHC Octet biosensors were used to capture tetramer/VHH-Fc and then dipped into antigen.

[12] = target: T2, mouse DLL3 (recombinant antigen); experiment: BLI (Octet), VHH-Fc captured on AHC biosensor, mDLL3 as analyte
Experimental: as §1, §3

[13] = target: T4, human FOLR1 (recombinant antigen); experiment: BLI (Octet), VHH-Fc captured on AHC biosensor, hFOLR1 as analyte
Experimental: as §1, §3

[14] = target: T5, mouse FOLR1 (recombinant antigen); experiment: BLI (Octet), VHH-Fc captured on AHC biosensor, mFOLR1 as analyte
Experimental: as §1, §3

T5 sequence (P35846 25-232 limits assumed): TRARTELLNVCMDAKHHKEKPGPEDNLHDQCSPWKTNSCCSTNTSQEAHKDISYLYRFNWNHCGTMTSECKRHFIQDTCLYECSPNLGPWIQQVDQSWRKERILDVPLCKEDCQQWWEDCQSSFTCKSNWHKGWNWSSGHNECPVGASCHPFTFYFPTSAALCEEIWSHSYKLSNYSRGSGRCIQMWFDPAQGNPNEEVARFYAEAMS
T6 sequence (P15328 25-234): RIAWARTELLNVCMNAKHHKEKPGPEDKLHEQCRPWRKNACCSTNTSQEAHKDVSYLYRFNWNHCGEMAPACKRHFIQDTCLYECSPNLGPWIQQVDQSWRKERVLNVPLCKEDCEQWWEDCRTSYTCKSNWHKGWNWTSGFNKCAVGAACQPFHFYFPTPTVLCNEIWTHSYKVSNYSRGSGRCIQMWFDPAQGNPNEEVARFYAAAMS
T4 sequence (P15328 25-234 limits assumed): as the sequence (P15328 25-234) above

Row | Binder | EC50 [1] | EC50 [2] | EC50 [3] | Kd [4] | koff [4] | kon [4] | Kd [5] | koff [5] | kon [5] | Kd [6] | koff [6] | kon [6] | Kd [7] | koff [7] | kon [7] | H435Q-Fc SHP-77 Internalization FOI [8] | EC50 [9] | Kd [10] | further results
1 | B1 | 0.14 nM | 0.09 nM | 0.58 nM | 1.43 nM | 0.000312 s⁻¹ | 219000 M⁻¹ s⁻¹ | 2.68 nM | 0.00102 s⁻¹ | 381000 M⁻¹ s⁻¹ | 7 nM | 0.00399 s⁻¹ | 553000 M⁻¹ s⁻¹ | 2.92 nM | 0.000659 s⁻¹ | 226000 M⁻¹ s⁻¹ | – | – | – | –
2 | B2 | – | – | – | – | – | – | – | – | – | – | – | – | – | – | – | 1.19 fold over isotype | 1.2 nM | 1.08 nM | –
3 | B3 | – | – | – | – | – | – | – | – | – | – | – | – | – | – | – | 1.19 fold over isotype | 1.16 nM | 0.2 nM | –
4 | B4 | 0.12 nM | 0.08 nM | – | – | – | – | – | – | – | – | – | – | – | – | – | – | – | – | binding result [11]: no binding; binding result [12]: no binding; Kd [13]: 2.19 nM; koff [13]: 0.000828 s⁻¹; kon [13]: 379000 M⁻¹ s⁻¹; Kd [14]: 4.67 nM; koff [14]: 0.00312 s⁻¹; kon [14]: 668000 M⁻¹ s⁻¹
5 | B5 | – | – | – | – | – | – | – | – | – | – | – | – | – | – | – | 1.19 fold over isotype | 0.44 nM | < 1 nM | –
6 | B6 | 0.11 nM | 0.07 nM | 0.59 nM | 1.24 nM | 0.000267 s⁻¹ | 215000 M⁻¹ s⁻¹ | 2.32 nM | 0.000932 s⁻¹ | 401000 M⁻¹ s⁻¹ | 7.99 nM | 0.00386 s⁻¹ | 483000 M⁻¹ s⁻¹ | 2.88 nM | 0.000642 s⁻¹ | 223000 M⁻¹ s⁻¹ | – | – | – | –
7 | B7 | 0.13 nM | 0.08 nM | 0.7 nM | 1.53 nM | 0.000306 s⁻¹ | 200000 M⁻¹ s⁻¹ | 2.75 nM | 0.00111 s⁻¹ | 405000 M⁻¹ s⁻¹ | 8.32 nM | 0.00407 s⁻¹ | 490000 M⁻¹ s⁻¹ | 3.09 nM | 0.000684 s⁻¹ | 222000 M⁻¹ s⁻¹ | – | – | – | –
8 | B8 | – | – | – | – | – | – | – | – | – | – | – | – | – | – | – | 1.18 fold over isotype | 0.47 nM | 0.55 nM | –
9 | B9 | – | – | – | – | – | – | – | – | – | – | – | – | – | – | – | 1.27 fold over isotype | 0.74 nM | 0.72 nM | –
